Test results: US20190300625A1 (Regeneron, published 2019)

Legend:
[1] = biological target: cynomolgous monkey TMPRSS2 (XP_015302311.1 with S129L, N251S, I415V, R431Q, D492G) expressed on … (cynomolgous monkey; SEQ ID NO …); test: flow cytometry on MDCK/Tet-on/mfTMPRSS2 cells, doxycycline-induced
[2] = biological target: human TMPRSS2 (NP_005647.3 with a V160M) expressed on MDCK/Tet-on/hTMPRSS2 cells (human, UniProt O15393 1-492); test: flow cytometry on MDCK/Tet-on/hTMPRSS2 cells, doxycycline-induced
human TMPRSS2 (NP_005647.3 with a V160M) expressed on MDCK/Tet-on/hTMPRSS2 cells, sequence (O15393 whole entry V160M): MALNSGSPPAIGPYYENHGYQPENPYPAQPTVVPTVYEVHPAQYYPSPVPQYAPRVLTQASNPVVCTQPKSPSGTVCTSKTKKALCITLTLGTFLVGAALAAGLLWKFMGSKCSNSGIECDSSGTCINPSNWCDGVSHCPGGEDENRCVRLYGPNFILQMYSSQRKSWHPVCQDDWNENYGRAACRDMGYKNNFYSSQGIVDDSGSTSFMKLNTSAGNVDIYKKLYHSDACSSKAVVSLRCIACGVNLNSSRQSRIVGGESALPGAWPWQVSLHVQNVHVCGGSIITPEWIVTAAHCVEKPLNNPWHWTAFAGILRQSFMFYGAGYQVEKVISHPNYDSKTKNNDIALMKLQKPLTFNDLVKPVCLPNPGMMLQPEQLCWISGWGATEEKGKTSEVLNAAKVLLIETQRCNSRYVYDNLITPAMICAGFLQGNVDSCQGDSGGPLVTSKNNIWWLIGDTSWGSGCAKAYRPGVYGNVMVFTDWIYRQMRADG

cynomolgous monkey TMPRSS2 (XP_015302311.1 with S129L, N251S, I415V, R431Q, D492G) expressed on … (cynomolgous monkey; SEQ ID NO …), sequence (chain, as listed by the source S129L N251S I415V R431Q D492G S129L N251S I415V R431Q D492G limits assumed): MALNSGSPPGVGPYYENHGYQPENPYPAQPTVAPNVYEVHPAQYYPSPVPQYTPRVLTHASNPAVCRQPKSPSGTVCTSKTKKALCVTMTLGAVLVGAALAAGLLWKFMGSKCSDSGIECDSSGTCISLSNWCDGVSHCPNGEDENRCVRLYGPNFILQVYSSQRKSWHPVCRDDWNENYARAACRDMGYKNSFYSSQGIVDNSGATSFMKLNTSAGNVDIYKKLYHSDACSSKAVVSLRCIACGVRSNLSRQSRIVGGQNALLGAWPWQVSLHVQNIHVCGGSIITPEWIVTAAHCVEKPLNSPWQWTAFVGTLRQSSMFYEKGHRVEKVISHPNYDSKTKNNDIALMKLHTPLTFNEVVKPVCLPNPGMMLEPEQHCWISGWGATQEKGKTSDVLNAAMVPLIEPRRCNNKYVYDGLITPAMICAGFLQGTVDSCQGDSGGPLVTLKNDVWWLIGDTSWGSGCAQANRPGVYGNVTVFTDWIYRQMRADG

B1: H1H7017N (antibody, human IgG1, kappa, V domains shown)
VH: QVQLVESGGGVVQPGRSLRLSCAASGFTFSSYGMHWVRQSPGKGLEWVAVIWNDGSYVYYADSVKGRFTISRDISKNTLFLQMNSLRAEDTAVYYCAREGEWVLYYFDYWGQGTLVTVSS
VL: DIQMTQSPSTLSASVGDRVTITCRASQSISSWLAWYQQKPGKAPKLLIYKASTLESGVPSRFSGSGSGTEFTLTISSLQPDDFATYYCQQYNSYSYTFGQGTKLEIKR
notes: also called anti-TMPRSS2 mAb; anti-hTMPRSS2 antibody
Which results are given for B1?
EC50 [1]: 1060 pM; EC50 [2]: 460 pM
